Measurements as given in publication PMC8786284, “Serine acetyltransferase from Neisseria gonorrhoeae; structural and biochemical basis of inhibition” (Biochemical Journal, 2022).

What was measured:
[1] = molecular target: T1, Serine acetyltransferase (NgSAT) (Neisseria gonorrhoeae, UniProt Q5F6X0); experiment: biochemical
T1 construct: gene NGO_1423; full-length, N-terminal His-tag, hexamer

[2] = molecular target: the molecule itself; experiment: SEC; Enrich 650 analytical gel filtration column calibrated with Gel Filtration Standards (Bio-Rad); 50 mM Tris pH 8.0, 100 mM NaCl; oligomeric state of NgSAT
[3] = substrate: CC(=O)SCCNC(=O)CCNC(=O)[C@H](O)C(C)(C)COP(=O)(O)OP(=O)(O)OC[C@H]1O[C@@H](n2cnc3c(N)ncnc32)[C@H](O)[C@@H]1OP(=O)(O)O; experiment: Michaelis-Menten kinetics (KM) with purified enzyme; format: biochemical, Neisseria gonorrhoeae
purified protein = substrate: N[C@@H](CO)C(=O)O; experiment: purified protein; format: biochemical, Neisseria gonorrhoeae; settings: active site between adjacent monomers; Asp96, Asp161, His162, Arg196, His197
[4] = molecular target: the molecule itself; experiment: SEC-SAXS; Superdex 200 5/150 in line with SAXS, co-flow; 50 mM Tris pH 8.0, 100 mM NaCl, without or with 50 µM L-cysteine; 25°C; mass from Porod volume and P(r) analysis

`CC(C)(COP(=O)(O)OP(=O)(O)OC[C@H]1O[C@@H](n2cnc3c(N)ncnc32)[C@H](O)[C@@H]1OP(=O)(O)O)[C@@H](O)C(=O)NCCC(=O)NCCS` [coenzyme A] gave an IC50 [1] of 573 ± 11 µM.

B1: Neisseria gonorrhoeae serine acetyltransferase (enzyme, Neisseria gonorrhoeae MS11, UniProt Q5F6X0 1-272, looked up)
chain: MKKNHLNTTGFDLWHTIREETAAAAAAEPMLASFLHQTVLRHESLGSVLAYHLSSKLGSPIMDVRALFEIYQQALGSDTQISKCVEADLKAIYERDPACDEYSLPLLYFKGFHAIQAHRINHRLYLDGRKTLAYFLQNRMSEVFGVDIHPAARLGYGLMLDHATGFVAGETAVLGNNISILHGVTLGGSGKEGGDRHPKIGDGVMIGANASILGNIRIGSNAKIGAGSVVVSDVPPSITVVGVPAKPVARSLKTPSADMDQNIQFAEIDFMI
notes: 272-residue polypeptide (N-terminal domain 1-144, LbetaH domain 145-272) with an uncleaved 21-residue N-terminal histidine tag; monomer with tag 31.6 kDa; Hexamer (dimer of trimers); also called NgSAT; SAT; source: E. coli BL21 (DE3), purified (HisTrap IMAC, gel filtration); not shown: His-tag, N-terminal, kept
With B1 the “stoichiometry N” value [2] was 6, the Km [3] was 149 ± 50 µM and the kcat [3] was 1180 ± 111 s⁻¹. The kcat/Km [3] was 7.89e+06 M⁻¹ s⁻¹, the Km (purified protein) was 1210 ± 160 µM and the kcat (purified protein) was 1440 ± 41 s⁻¹. The kcat/Km (purified protein) was 1.19e+06 M⁻¹ s⁻¹ and the “stoichiometry N” value [4] was 6.1 monomers per structure.
